In experiment [1] the target is BVDV NS5A recombinant protein (Bovine viral diarrhea virus 1, RefSeq …, UniProt P19711). Description: ELISA; indirect ELISA (i-ELISA); NS3 or NS5A coated on 96-well plates (10 ug/mL for the panning and serum ELISA); OD450 read; nanobody targeting PRRSV as negative control. In general terms: An ELISA detects its analyte on a solid surface through an enzyme-linked reagent.

Experiment [2] addresses T1, BVDV NS3 recombinant protein (Bovine viral diarrhea virus 1, RefSeq …).
T1 chain: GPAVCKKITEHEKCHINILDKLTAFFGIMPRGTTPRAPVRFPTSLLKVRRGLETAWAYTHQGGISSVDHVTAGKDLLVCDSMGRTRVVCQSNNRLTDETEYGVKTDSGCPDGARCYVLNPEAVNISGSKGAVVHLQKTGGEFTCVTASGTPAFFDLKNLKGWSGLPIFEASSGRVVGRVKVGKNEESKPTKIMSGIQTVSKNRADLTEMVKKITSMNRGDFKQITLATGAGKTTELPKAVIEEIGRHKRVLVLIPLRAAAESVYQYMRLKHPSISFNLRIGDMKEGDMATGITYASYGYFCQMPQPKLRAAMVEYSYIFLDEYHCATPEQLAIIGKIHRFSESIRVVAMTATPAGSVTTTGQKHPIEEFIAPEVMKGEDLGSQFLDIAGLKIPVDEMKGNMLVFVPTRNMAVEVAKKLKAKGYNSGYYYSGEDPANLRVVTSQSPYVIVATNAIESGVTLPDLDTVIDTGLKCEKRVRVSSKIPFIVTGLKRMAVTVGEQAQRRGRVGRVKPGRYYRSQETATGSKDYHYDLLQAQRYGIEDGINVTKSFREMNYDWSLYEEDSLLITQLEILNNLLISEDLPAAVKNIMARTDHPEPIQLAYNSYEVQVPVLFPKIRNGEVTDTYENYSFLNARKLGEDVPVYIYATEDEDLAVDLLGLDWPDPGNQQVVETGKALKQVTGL
Described as above.

Sequence of BVDV NS5A recombinant protein (P19711 2774-3269): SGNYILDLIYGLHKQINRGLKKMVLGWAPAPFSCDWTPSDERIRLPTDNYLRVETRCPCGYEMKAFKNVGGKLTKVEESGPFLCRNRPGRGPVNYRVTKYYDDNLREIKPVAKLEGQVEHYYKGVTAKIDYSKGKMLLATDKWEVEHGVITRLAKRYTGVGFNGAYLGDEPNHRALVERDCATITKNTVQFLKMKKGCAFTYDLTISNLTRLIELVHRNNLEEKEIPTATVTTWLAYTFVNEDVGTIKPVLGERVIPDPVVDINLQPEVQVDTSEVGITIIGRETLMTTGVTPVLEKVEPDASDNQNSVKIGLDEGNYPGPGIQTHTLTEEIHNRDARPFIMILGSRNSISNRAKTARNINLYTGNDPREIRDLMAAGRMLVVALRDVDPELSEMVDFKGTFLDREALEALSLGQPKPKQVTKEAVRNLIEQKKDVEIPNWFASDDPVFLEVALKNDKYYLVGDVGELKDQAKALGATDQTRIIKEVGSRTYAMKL

B1: Nb11 (VHH)
VHH: QVQLQESGGGSVQPGGSRRLSCEGSGETLGYRRQTWFRQAPGKEREGVSCISSLDDGTYYKDSVKGRFTISRDNANKMVYLQMNSLEPEDTAIYYCAADPERSSYSGPLGSLGYSYWGQGTQVTVSS
notes: also called nanobody Nb11
With B1, in experiment [1], the binding result is listed as “binds”.

B2: Nb10 (VHH)
VHH: QVQLQESGGGLVQPGGSLRLSCAASGETARSGACGWFRQAPGKEREGVASINRYGFRTYADSVKGRFTISTDNAKNTVDLQMSNLRPEDTAAYYCAADSLTFWSAPCCSSTSPGTWGQGTQVTVSS
notes: also called nanobody Nb10
Turning to B2, the binding result in experiment [1] is given as “binds”.

B3: Nb22 (VHH)
VHH: QVQLQESGGGLVQPGGSLRLSCRASGYTSCMAWFRQAPKEREGVASINSDGSTAYADSVQGRFTISRDNTMNTLYLQMNSLKPEDTAMYYCAAERPSSCLPRNIWVDTNYWGQGTQVTVSS
notes: also called nanobody Nb22
On to B3, for which the binding result in experiment [2] is reported as “binds”.

B4: Nb15 (VHH)
VHH: QVQLQESGGGLVQPGGSLRLSCAASGGSLTYYCMAWFRQTPGKEREWVSCISNYGFTINYADSVKGRFSISRDNAKNTVYLAMHIPEPEDTGVYVCADLSFEHLYYCSTAQSEGSEWGQGTQVTVSS
notes: also called nanobody Nb15
Take B4: in experiment [1], the binding result was “binds”.

B5: Nb19 (VHH)
VHH: QVQLQESGGGLVQPGGSLRLSCAASGFTFQTYSMGWVRQAPGKGLEWVSSISGDGSTYYSDSVKGRFTISTDNANTLYLQMNSLKSEDTAVYYCAKERSPADYRNWLMPYWGKGTLVTVSS
notes: also called nanobody Nb19
Take B5: the binding result in experiment [2] is reported as “binds”.

These data come from PMC12650317 (Biomolecules, 2025).
